The nature of this data set: self-splicing fitness, log relative to wild type (ln ratio); higher = more splicing; Tetrahymena group I intron in knt gene, E. coli kanamycin selection, DiMSum; sequences stand for … in CUCUCU…GGAGGGAAAAGUUAUCAGGCAUGCACCUGGUAGCUAGUCUUUAAACCAAUAGAUUGCAUCGGUUUAAAAGGCAAGACCGUCAAAUUGCGGGAAAGGGGUCAACAGCCGUUCAGUACCAAGUCUCAGGGGAAACUUUGAGAUGGCCUUGCAAAGGGUAUGGUAAUAAGCUGACGGACAUGGUCCUAACCACGCAGCCAAGUCCUAAGUCAACAGAUCUUCUGUUGAUAUGGAUGCAGUUCACAGACUAAAUGUCGGUCGGGGAAGAUGUAUUCUUCUCAUAAGAUAUAGUCGGACCUCUCCUUAAUGGGAGCUAGCGGAUGAAGUGAUGCAACACUGGAGCCGCUGGGAACUAAUUUGUAUGCGAAAGUAUAUUGAUUAGUUUUGGAGUACUCGUGGUCG
The method, boiled down:
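Colonies from six replicate transformations of E. coli BL21(DE3) were pooled and amplicon-sequenced on an Illumina HiSeq 2500. The library placed an intron with all eight P1ex-region nucleotides randomised inside the knt kanamycin-resistance gene on pET-22b(+), and cells grew overnight at 37°C or 30°C on LB agar with or without 25 μg/mL kanamycin (plus 100 μg/mL carbenicillin, 50 μM IPTG, 0.2% rhamnose). Fitness is the DiMSum error-weighted combination of wild-type-normalised replicate fold changes, kanamycin versus none.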

± gives the uncertainty stated by the source.

For UUGCAGCAAUAUUACGUCUA, the “self-splicing fitness (ln)” value reads like this: (30 °C) -0.361 ± 0.11; (37 °C) -0.0705 ± 0.11.
For UUGCAGCAAUAUUACGUUGA the same measures were -1.61 ± 0.12 and -1.24 ± 0.12.
In the same order, the values of UUGGAGCAAUAUUACGAAAG are -2.5 ± 0.33 and -2.08 ± 0.37.
In the same order, the values of UUGGAGCAAUAUUACGACCU are -2.97 ± 0.32 and -0.7 ± 0.38.
As for UUGGAGCAAUAUUACGAGCA, the “self-splicing fitness (ln)” value (30 °C) was -3.18 ± 0.37 and the “self-splicing fitness (ln)” value (37 °C) is -1.74 ± 0.31.
In the same order, the values of UUGGAGCAAUAUUACGAGUG are -4.05 ± 0.33 and -3.04 ± 0.24.
In the same order, the values of UUGGAGCAAUAUUACGCGUU are -2.97 ± 0.47 and -2.47 ± 0.34.
In the same order, the values of UUGGAGCAAUAUUACGGACA are -2.52 ± 0.49 and -1.91 ± 0.18.
As to UUGGAGCAAUAUUACGGUGA, the “self-splicing fitness (ln)” value by setting is: (30 °C) -1.27 ± 0.22; (37 °C) -1.36 ± 0.14.
Turning to UUGGAGCAAUAUUACGUCUA, the “self-splicing fitness (ln)” value was -1.99 ± 0.34 (30 °C) and -2.49 ± 0.3 (37 °C).
In the same order, the values of UUGGAGCAAUAUUACGUGUC are -3.26 ± 0.22 and -2.77 ± 0.38.
In the same order, the values of UUGUAGCAAUAUUACGAAUA are -1.74 ± 0.15 and -1.64 ± 0.14.
For UUGUAGCAAUAUUACGAAUC the same measures were -3.06 ± 0.14 and -2.76 ± 0.24.
In the case of UUGUAGCAAUAUUACGAGGU, the “self-splicing fitness (ln)” value runs as follows: (30 °C) -2.82 ± 0.2; (37 °C) -2.61 ± 0.36.
Consider UUGUAGCAAUAUUACGAUUG, for which the “self-splicing fitness (ln)” value runs as follows: (30 °C) -2.16 ± 0.15; (37 °C) -1.42 ± 0.2.
For UUGUAGCAAUAUUACGCAAA the same measures were -2.73 ± 0.35 and -1.05 ± 0.26.
Consider UUGUAGCAAUAUUACGGGCG, for which the “self-splicing fitness (ln)” value (30 °C) was -1.05 ± 0.14 and the “self-splicing fitness (ln)” value (37 °C) worked out at 0.346 ± 0.2.
Turning to UUGUAGCAAUAUUACGUAAU, the “self-splicing fitness (ln)” value is -2.9 ± 0.22 (30 °C) and -2.37 ± 0.24 (37 °C).
For UUGUAGCAAUAUUACGUAUG the same measures were -1.99 ± 0.14 and -1.42 ± 0.16.
On to UUGUAGCAAUAUUACGUCGU, for which the “self-splicing fitness (ln)” value reads like this: (30 °C) -3.78 ± 0.26; (37 °C) -2.44 ± 0.2.
In the same order, the values of UUGUAGCAAUAUUACGUUAU are -2.7 ± 0.41 and -2.1 ± 0.25.
In the same order, the values of UUGUAGCAAUAUUACGUUCA are -1.07 ± 0.11 and -0.717 ± 0.13.
Consider UUGUAGCAAUAUUACGUUGU, for which the “self-splicing fitness (ln)” value reads like this: (30 °C) -3.77 ± 0.27; (37 °C) -2.81 ± 0.24.
For UUGUAGCAAUAUUACGUUUG the same measures were -1.83 ± 0.15 and -1.87 ± 0.2.
For UUUAAGCAAUAUUACGAAAC, where the note is “37 °C”, the “self-splicing fitness (ln)” value was -1.01 ± 0.39.
With UUUAAGCAAUAUUACGAACA, the “self-splicing fitness (ln)” value was -0.6 ± 0.17 (30 °C) and -0.353 ± 0.19 (37 °C).
Take UUUAAGCAAUAUUACGAAUG: the “self-splicing fitness (ln)” value is, setting by setting: (30 °C) -1.54 ± 0.13; (37 °C) -0.41 ± 0.15.
In the same order, the values of UUUAAGCAAUAUUACGAAUU are -1.6 ± 0.17 and -1.58 ± 0.2.
In the same order, the values of UUUAAGCAAUAUUACGACUC are -0.391 ± 0.24 and -0.881 ± 0.4.
For the sequence UUUAAGCAAUAUUACGAGUA, the “self-splicing fitness (ln)” value was -1.72 ± 0.19 (30 °C) and -1.06 ± 0.19 (37 °C).
In the same order, the values of UUUAAGCAAUAUUACGAUCG are -0.416 ± 0.12 and 0.237 ± 0.17.
In the same order, the values of UUUAAGCAAUAUUACGCAUA are -3.17 ± 0.2 and -0.829 ± 0.14.
On to UUUAAGCAAUAUUACGCGUA, for which the “self-splicing fitness (ln)” value is, setting by setting: (30 °C) -1.4 ± 0.14; (37 °C) -0.828 ± 0.13.
As for UUUAAGCAAUAUUACGCUUG, the “self-splicing fitness (ln)” value (30 °C) was -3.29 ± 0.23 and the “self-splicing fitness (ln)” value (37 °C) was -1.4 ± 0.26.
In the same order, the values of UUUAAGCAAUAUUACGGCGU are -1.29 ± 0.27 and -0.169 ± 0.34.
For UUUAAGCAAUAUUACGGGGC the same measures were -2.77 ± 0.3 and -3.55 ± 0.3.
In the same order, the values of UUUAAGCAAUAUUACGGGUU are -2.83 ± 0.3 and -1.67 ± 0.22.
With UUUAAGCAAUAUUACGGUAC, where the note is “30 °C”, the “self-splicing fitness (ln)” value was -2.22 ± 0.28.
Consider UUUAAGCAAUAUUACGGUAU, for which the “self-splicing fitness (ln)” value was -3.05 ± 0.17 (30 °C) and -0.94 ± 0.17 (37 °C).
In the same order, the values of UUUAAGCAAUAUUACGUAAG are -0.0425 ± 0.074 and 0.296 ± 0.094.
In the same order, the values of UUUAAGCAAUAUUACGUACG are -0.346 ± 0.16 and 0.322 ± 0.17.
On to UUUAAGCAAUAUUACGUAUC, for which the “self-splicing fitness (ln)” value (37 °C) was -1.84 ± 0.33.
For the sequence UUUAAGCAAUAUUACGUCUG, the “self-splicing fitness (ln)” value runs as follows: (30 °C) -0.513 ± 0.1; (37 °C) -0.114 ± 0.12.
In the same order, the values of UUUAAGCAAUAUUACGUGGA are -1.99 ± 0.18 and -1.56 ± 0.2.
For UUUAAGCAAUAUUACGUUCG the same measures were -0.639 ± 0.093 and -0.169 ± 0.12.
In the same order, the values of UUUCAGCAAUAUUACGACAU are -1.41 ± 0.015 and -0.565 ± 0.033.
Consider UUUCAGCAAUAUUACGACCG, for which the “self-splicing fitness (ln)” value is 0.263 ± 0.18 (30 °C) and -0.377 ± 0.29 (37 °C).
In the same order, the values of UUUCAGCAAUAUUACGAGGU are -3.53 ± 0.2 and -2.78 ± 0.24.
In the same order, the values of UUUCAGCAAUAUUACGAUCG are -0.997 ± 0.099 and -0.152 ± 0.14.
For UUUCAGCAAUAUUACGAUUG the same measures were -0.724 ± 0.087 and -0.057 ± 0.11.
As for UUUCAGCAAUAUUACGCACU, the “self-splicing fitness (ln)” value by setting is: (30 °C) -0.429 ± 0.077; (37 °C) -0.09 ± 0.092.
For UUUCAGCAAUAUUACGCGAU the same measures were -3.39 ± 0.15 and -2.47 ± 0.16.
As to UUUCAGCAAUAUUACGCGCU, the “self-splicing fitness (ln)” value (30 °C) was -3.54 ± 0.5.
On to UUUCAGCAAUAUUACGCGGC, for which the “self-splicing fitness (ln)” value runs as follows: (30 °C) -2.67 ± 0.25; (37 °C) -1.74 ± 0.27.
For UUUCAGCAAUAUUACGCGGG, the “self-splicing fitness (ln)” value was -2.27 ± 0.12 (30 °C) and -2.35 ± 0.15 (37 °C).
For UUUCAGCAAUAUUACGGAAG the same measures were -1.69 ± 0.12 and -0.536 ± 0.19.
In the same order, the values of UUUCAGCAAUAUUACGGAUC are -1.14 ± 0.07 and -0.289 ± 0.089.
In the same order, the values of UUUCAGCAAUAUUACGGGAG are -0.794 ± 0.07 and -0.0774 ± 0.1.
UUUCAGCAAUAUUACGGGGA: the “self-splicing fitness (ln)” value reads like this: (30 °C) -2.43 ± 0.24; (37 °C) -0.33 ± 0.16.
For UUUCAGCAAUAUUACGGGUC the same measures were -3.24 ± 0.26 and -2.14 ± 0.2.
In the same order, the values of UUUCAGCAAUAUUACGGUAC are -1.9 ± 0.41 and -2.1 ± 0.26.
In the case of UUUCAGCAAUAUUACGGUGA, the “self-splicing fitness (ln)” value is, setting by setting: (30 °C) -0.66 ± 0.056; (37 °C) -0.395 ± 0.064.
For UUUCAGCAAUAUUACGUACG the same measures were -0.905 ± 0.12 and -0.18 ± 0.11.
For UUUCAGCAAUAUUACGUCUC the same measures were -3.39 ± 0.4 and -0.735 ± 0.17.
In the same order, the values of UUUCAGCAAUAUUACGUGGC are -2.68 ± 0.15 and -2.94 ± 0.22.
Turning to UUUCAGCAAUAUUACGUGGG, the “self-splicing fitness (ln)” value was -2.4 ± 0.14 (30 °C) and -1.95 ± 0.12 (37 °C).
UUUCAGCAAUAUUACGUUAG: the “self-splicing fitness (ln)” value (30 °C) is -1.31 ± 0.11 and the “self-splicing fitness (ln)” value (37 °C) is -0.474 ± 0.12.
In the same order, the values of UUUGAGCAAUAUUACGAACU are -3.36 ± 0.28 and -2.77 ± 0.31.
UUUGAGCAAUAUUACGACCG: where the note is “37 °C”, the “self-splicing fitness (ln)” value was -1.19 ± 0.4.
Turning to UUUGAGCAAUAUUACGAUAA, the “self-splicing fitness (ln)” value by setting is: (30 °C) -1.25 ± 0.087; (37 °C) -0.386 ± 0.095.
For UUUGAGCAAUAUUACGAUUG the same measures were -3.75 ± 0.47 and -2.41 ± 0.31.
For the sequence UUUGAGCAAUAUUACGCAAC, the “self-splicing fitness (ln)” value (37 °C) is -1.71 ± 0.26.
For UUUGAGCAAUAUUACGCGAU, the “self-splicing fitness (ln)” value (37 °C) was -2.19 ± 0.4.
Take UUUGAGCAAUAUUACGCGGU: the “self-splicing fitness (ln)” value by setting is: (30 °C) -2.67 ± 0.28; (37 °C) -2.37 ± 0.35.
In the same order, the values of UUUGAGCAAUAUUACGCGUU are -2.4 ± 0.18 and -2.86 ± 0.42.
For UUUGAGCAAUAUUACGCUGG the same measures were -2.04 ± 0.11 and -2.01 ± 0.14.
In the same order, the values of UUUGAGCAAUAUUACGCUUG are -3.52 ± 0.37 and -1.63 ± 0.4.

For the origin of these results see the supplement of paper PMC7877785.
